This is an account of results in doi:10.1101/2019.12.19.882373.

Experiment in all cases: FRET or BRET
In assay [1] the target is CipA cohesin 2 module (c2A), G144C, labelled with Cy3B (C. thermocellum).
The target of assay [2] is CipA cohesin 7 module (c7A) (C. thermocellum) (UniProt Q06851).
Assay [3] has as its target cohesin module 7 of scaffoldin CipC (c7C) (C. cellulolyticum).
Assay [4] addresses cohesin 1 from scaffoldin CipC (c1C) (C. cellulolyticum).
Assay [5] deals with CipA cohesin 1 module (c1A) (C. thermocellum) (UniProt Q06851).

Turning to “dockerin CelS (type-I dockerin module of cellulase S), D63C, labelled with Alexa Fluor 647 (domain or fragment)”, the values for the fraction of complexes in binding mode B1 in assay [1] and in assay [2] were 0.43 and 0.58, respectively.

Consider “dockerin celS single residue clasp mutant Y5A (celS_Y5A) (domain or fragment)”, for which, in assay [1], the fraction of complexes in binding mode B1 amounted to 0.42 and the fraction of complexes in binding mode B1 (cyclophilin-treated) was determined as 0.2.

For the substance “dockerin from cellulase A (CelA) (domain or fragment)”, the fraction of complexes in binding mode B1 is 0.37 in assay [1] and 0.48 in assay [2].

For the substance “dockerin from the cellulase 5A of C. cellulolyticum (CcCel5A) (domain or fragment)”, the fraction of complexes in binding mode B1 in assay [3] was found to be 0.45; in assay [4], 0.26.

In the case of “swapped version of dockerin celS (celS_Swap), helices H1 and H3 exchanged (domain or fragment)”, the results for the fraction of complexes in binding mode B1 in assay [1], in assay [2] and in assay [5] were 0.89, 0.69 and 0.59, respectively.
